# Publication PMC3334289 (Fems Microbiology Letters, 2012)
# B1: His6-tagged MreB (MreB-HIS) (natural protein, E. coli, UniProt P0A9X4 1-347, looked up)
# chain: MLKKFRGMFSNDLSIDLGTANTLIYVKGQGIVLNEPSVVAIRQDRAGSPKSVAAVGHDAKQMLGRTPGNIAAIRPMKDGVIADFFVTEKMLQHFIKQVHSNSFMRPSPRVLVCVPVGATQVERRAIRESAQGAGAREVFLIEEPMAAAIGAGLPVSEATGSMVVDIGGGTTEVAVISLNGVVYSSSVRIGGDRFDEAIINYVRRNYGSLIGEATAERIKHEIGSAYPGDEVREIEVRGRNLAEGVPRGFTLNSNEILEALQEPLTGIVSAVMVALEQCPPELASDISERGMVLTGGGALLRNLDRLLMEETGIPVVVAEDPLTCVARGGGKALEMIDMHGGDLFSEE
# Target: the molecule itself
# Assay: sedimentation of polymers
protein,measurement,value
B1,binding result,binds
